One block for each substance: values may come before it.
What was measured:
[1] = target: collagen IV NC1 domains of the NC1 hexamer from African clawed frog kidney (African clawed frog (Xenopus laevis)); test: SDS-PAGE (SDS resistance of the native hexamer); straight collagenase digest of tissue or animals; SDS-PAGE with 150 mM NaCl; sample at room temperature; Western blot with JK2
[2] = target: collagen IV NC1 domains of the NC1 hexamer from California blackworms (California blackworm (Lumbriculus variegatus)); test: SDS-PAGE (SDS resistance of the native hexamer); straight collagenase digest of tissue or animals; regular SDS-PAGE without Cl^− supplement; sample at room temperature; Western blot with JK2
[3] = target: collagen IV NC1 domains of the NC1 hexamer from California blackworms (California blackworm (Lumbriculus variegatus)); test: SDS-PAGE (SDS resistance of the native hexamer); straight collagenase digest of tissue or animals; SDS-PAGE with 150 mM NaCl; sample at room temperature; Western blot with JK2
[4] = target: collagen IV NC1 domains of the NC1 hexamer from axolotl kidney (axolotl (Ambystoma mexicanum)); test: as above
[5] = target: collagen IV NC1 domains of the NC1 hexamer from banded killifish organs (banded killifish (Fundulus heteroclitus)); test: SDS-PAGE (SDS resistance of the native hexamer); straight collagenase digest of tissue or animals; regular SDS-PAGE without Cl^− supplement; sample at room temperature; Western blot with JK2
[6] = target: collagen IV NC1 domains of the NC1 hexamer from banded killifish organs (banded killifish (Fundulus heteroclitus)); test: SDS-PAGE (SDS resistance of the native hexamer); straight collagenase digest of tissue or animals; SDS-PAGE with 150 mM NaCl; sample at room temperature; Western blot with JK2
[7] = target: collagen IV NC1 domains of the NC1 hexamer from bovine kidney (cow (Bos taurus)); test: SDS-PAGE (SDS resistance of the native hexamer); purified NC1 hexamer; Tris-glycine SDS-PAGE with 150 mM NaCl in running buffer and sample buffer; sample at room temperature, not boiled; Coomassie, TCE or Western blot
[8] = target: collagen IV NC1 domains of the NC1 hexamer from caiman liver (caiman (Caiman crocodilus)); test: SDS-PAGE (SDS resistance of the native hexamer); straight collagenase digest of tissue or animals; SDS-PAGE with 150 mM NaCl; sample at room temperature; Western blot with JK2
[9] = target: collagen IV NC1 domains of the NC1 hexamer from dogfish lens capsule, kidney and intestine (dogfish (Squalus acanthias)); test: SDS-PAGE (SDS resistance of the native hexamer); purified NC1 hexamer; regular SDS-PAGE without Cl^− supplement; sample at room temperature, not boiled; Coomassie, TCE or Western blot
[10] = target: collagen IV NC1 domains of the NC1 hexamer from dogfish lens capsule, kidney and intestine (dogfish (Squalus acanthias)); test: SDS-PAGE (SDS resistance of the native hexamer); purified NC1 hexamer; Tris-glycine SDS-PAGE with 150 mM NaCl in running buffer and sample buffer; sample at room temperature, not boiled; Coomassie, TCE or Western blot
[11] = target: collagen IV NC1 domains of the NC1 hexamer from green iguana heart and kidney (green iguana (Iguana iguana)); test: SDS-PAGE (SDS resistance of the native hexamer); straight collagenase digest of tissue or animals; regular SDS-PAGE without Cl^− supplement; sample at room temperature; Western blot with JK2
[12] = target: collagen IV NC1 domains of the NC1 hexamer from green iguana heart and kidney (green iguana (Iguana iguana)); test: SDS-PAGE (SDS resistance of the native hexamer); straight collagenase digest of tissue or animals; SDS-PAGE with 150 mM NaCl; sample at room temperature; Western blot with JK2
[13] = target: collagen IV NC1 domains of the NC1 hexamer from human kidney (human (Homo sapiens)); test: SDS-PAGE (SDS resistance of the native hexamer); purified NC1 hexamer; Tris-glycine SDS-PAGE with 150 mM NaCl in running buffer and sample buffer; sample at room temperature, not boiled; Coomassie, TCE or Western blot
[14] = target: collagen IV NC1 domains of the NC1 hexamer from leeches (leech (Hirudo medicinalis)); test: SDS-PAGE (SDS resistance of the native hexamer); straight collagenase digest of tissue or animals; regular SDS-PAGE without Cl^− supplement; sample at room temperature; Western blot with JK2
[15] = target: collagen IV NC1 domains of the NC1 hexamer from leeches (leech (Hirudo medicinalis)); test: SDS-PAGE (SDS resistance of the native hexamer); straight collagenase digest of tissue or animals; SDS-PAGE with 150 mM NaCl; sample at room temperature; Western blot with JK2
[16] = target: collagen IV NC1 domains of the NC1 hexamer from market squid lens capsules (market squid (Doryteuthis opalescens)); test: SDS-PAGE (SDS resistance of the native hexamer); partially purified NC1 hexamer (SEC hexamer fraction); SDS-PAGE with 150 mM NaCl; sample at room temperature; Western blot with JK2 or TCE in-gel visualization
[17] = target: collagen IV NC1 domains of the NC1 hexamer from mussel (mussel (Mytilus edulis)); test: SDS-PAGE (SDS resistance of the native hexamer); straight collagenase digest of tissue or animals; regular SDS-PAGE without Cl^− supplement; sample at room temperature; Western blot with JK2
[18] = target: collagen IV NC1 domains of the NC1 hexamer from mussel (mussel (Mytilus edulis)); test: SDS-PAGE (SDS resistance of the native hexamer); straight collagenase digest of tissue or animals; SDS-PAGE with 150 mM NaCl; sample at room temperature; Western blot with JK2
[19] = target: collagen IV NC1 domains of the NC1 hexamer from placenta basement membrane (bovine); test: SDS-PAGE (SDS resistance of the native hexamer); purified NC1 hexamer; Tris-glycine SDS-PAGE with 150 mM NaCl in running buffer and sample buffer; sample at room temperature, not boiled; Coomassie, TCE or Western blot
[20] = target: collagen IV NC1 domains of the NC1 hexamer from quick gloss snail (quick gloss snail (Zonitoides arboreus)); test: SDS-PAGE (SDS resistance of the native hexamer); partially purified NC1 hexamer (SEC hexamer fraction); regular SDS-PAGE without Cl^− supplement; sample at room temperature; Western blot with JK2 or TCE in-gel visualization
[21] = target: collagen IV NC1 domains of the NC1 hexamer from quick gloss snail (quick gloss snail (Zonitoides arboreus)); test: SDS-PAGE (SDS resistance of the native hexamer); partially purified NC1 hexamer (SEC hexamer fraction); SDS-PAGE with 150 mM NaCl; sample at room temperature; Western blot with JK2 or TCE in-gel visualization
[22] = target: collagen IV NC1 domains of the NC1 hexamer from rooster liver, kidney and chorioallantoic membrane (rooster (Gallus gallus domesticus)); test: SDS-PAGE (SDS resistance of the native hexamer); purified NC1 hexamer; Tris-glycine SDS-PAGE with 150 mM NaCl in running buffer and sample buffer; sample at room temperature, not boiled; Coomassie, TCE or Western blot
[23] = target: collagen IV NC1 domains of the NC1 hexamer from sea clam (sea clam (Spisula solidissima)); test: SDS-PAGE (SDS resistance of the native hexamer); straight collagenase digest of tissue or animals; regular SDS-PAGE without Cl^− supplement; sample at room temperature; Western blot with JK2
[24] = target: collagen IV NC1 domains of the NC1 hexamer from sea clam (sea clam (Spisula solidissima)); test: SDS-PAGE (SDS resistance of the native hexamer); straight collagenase digest of tissue or animals; SDS-PAGE with 150 mM NaCl; sample at room temperature; Western blot with JK2
[25] = target: collagen IV NC1 domains of the NC1 hexamer from sea squirt (sea squirt (Ciona intestinalis)); test: SDS-PAGE (SDS resistance of the native hexamer); collagenase digest, soluble fraction; Bis-Tris gel, Mops running buffer with 150 mM NaCl, sample buffer with 400 mM NaCl; sample at room temperature; Western blot with JK2
[26] = target: collagen IV NC1 domains of the NC1 hexamer from snapping turtle muscle (snapping turtle (Chelydra serpentina)); test: SDS-PAGE (SDS resistance of the native hexamer); straight collagenase digest of tissue or animals; SDS-PAGE with 150 mM NaCl; sample at room temperature; Western blot with JK2
[27] = target: collagen IV NC1 domains of the NC1 hexamer from starfish gonads (starfish (Asterias rubens)); test: as above
[28] = target: collagen IV NC1 domains of the NC1 hexamer from zebrafish material (zebrafish (Danio rerio)); test: SDS-PAGE (SDS resistance of the native hexamer); partially purified NC1 hexamer (SEC hexamer fraction); regular SDS-PAGE without Cl^− supplement; sample at room temperature; Western blot with JK2 or TCE in-gel visualization
[29] = target: collagen IV NC1 domains of the NC1 hexamer from zebrafish material (zebrafish (Danio rerio)); test: SDS-PAGE (SDS resistance of the native hexamer); partially purified NC1 hexamer (SEC hexamer fraction); SDS-PAGE with 150 mM NaCl; sample at room temperature; Western blot with JK2 or TCE in-gel visualization
[30] = target: collagen IV NC1 domains of the α121 NC1 hexamer from lens capsule basement membrane (bovine); test: SDS-PAGE (SDS resistance of the native hexamer); purified NC1 hexamer; Tris-glycine SDS-PAGE with 150 mM NaCl in running buffer and sample buffer; sample at room temperature, not boiled; Coomassie, TCE or Western blot

Substance: collagen IV NC1 domains of the NC1 hexamer from African clawed frog kidney (domain or fragment)
stoichiometry N [1]: 6

Substance: collagen IV NC1 domains of the NC1 hexamer from banded killifish organs (domain or fragment)
stoichiometry N [5]: 6
stoichiometry N [6]: 6

Substance: collagen IV NC1 domains of the NC1 hexamer from caiman liver (domain or fragment)
stoichiometry N [8]: 6

Substance: collagen IV NC1 domains of the NC1 hexamer from leeches (domain or fragment)
stoichiometry N [14]: 6
stoichiometry N [15]: 6

Substance: collagen IV NC1 domains of the NC1 hexamer from mussel (domain or fragment)
stoichiometry N [17]: 6
stoichiometry N [18]: 6

Substance: collagen IV NC1 domains of the NC1 hexamer from sea clam (domain or fragment)
stoichiometry N [23]: 6
stoichiometry N [24]: 6

Substance: collagen IV NC1 domains of the NC1 hexamer from snapping turtle muscle (domain or fragment)
stoichiometry N [26]: 6

Substance: collagen IV NC1 domains of the NC1 hexamer from starfish gonads (domain or fragment)
stoichiometry N [27]: 6

Substance: collagen IV NC1 domains of the NC1 hexamer from zebrafish material (domain or fragment)
stoichiometry N [28]: 6
stoichiometry N [29]: 6

Substance: collagen IV NC1 domains of the α121 NC1 hexamer from lens capsule basement membrane (domain or fragment)
stoichiometry N [30]: 6

The next lines start with the values.

stoichiometry N [2]: 6
stoichiometry N [3]: 6
Substance: collagen IV NC1 domains of the NC1 hexamer from California blackworms (domain or fragment)

stoichiometry N [4]: 6
Substance: collagen IV NC1 domains of the NC1 hexamer from axolotl kidney (domain or fragment)

stoichiometry N [7]: 6
Substance: collagen IV NC1 domains of the NC1 hexamer from bovine kidney (domain or fragment)

stoichiometry N [9]: 6
stoichiometry N [10]: 6
Substance: collagen IV NC1 domains of the NC1 hexamer from dogfish lens capsule, kidney and intestine (domain or fragment)

stoichiometry N [11]: 6
stoichiometry N [12]: 6
Substance: collagen IV NC1 domains of the NC1 hexamer from green iguana heart and kidney (domain or fragment)

stoichiometry N [13]: 6
Substance: collagen IV NC1 domains of the NC1 hexamer from human kidney (domain or fragment)

stoichiometry N [16]: 6
Substance: collagen IV NC1 domains of the NC1 hexamer from market squid lens capsules (domain or fragment)

stoichiometry N [19]: 6
Substance: collagen IV NC1 domains of the NC1 hexamer from placenta basement membrane (domain or fragment)

stoichiometry N [20]: 6
stoichiometry N [21]: 6
Substance: collagen IV NC1 domains of the NC1 hexamer from quick gloss snail (domain or fragment)

stoichiometry N [22]: 6
Substance: collagen IV NC1 domains of the NC1 hexamer from rooster liver, kidney and chorioallantoic membrane (domain or fragment)

stoichiometry N [25]: 6
Substance: collagen IV NC1 domains of the NC1 hexamer from sea squirt (domain or fragment)

— PMC10656227
